This note sets out measurements from JP2007501612A (dated 2007).

One may read the IC50 as the point on the concentration scale where inhibition reaches its midpoint. As usually defined, the Kd is the free concentration of one partner at which half of the binding sites on the other are occupied at equilibrium, for simple one-to-one binding.

Experiment [1] deals with T1, mutant peptide Arg119His LDLSDNAQLHVVDPTT (rat).
T1 peptide: LDLSDNAQLHVVDPTT
As to the kind of experiment: ELISA, peptide on MaxiSorp plate, serial dilution of 7E11. (In an ELISA, binding on a coated surface is turned into a signal by an enzyme label.)

Experiment [2] concerns the target T2, mutant peptide Gln117Ala LDLSDNAALRVVDPTT (rat).
T2 construct: also called Gla117Ala (so in the source)
T2 peptide: LDLSDNAALRVVDPTT
The description is as above.

Another experiment has as its target T3, sNogoR344-Fc (rat, UniProt Q99M75 26-344).
T3 construct: also called Fc-sNogoR344; Ig-sNogoR344; not shown: hinge region and Fc region of rat IgG1
T3 chain: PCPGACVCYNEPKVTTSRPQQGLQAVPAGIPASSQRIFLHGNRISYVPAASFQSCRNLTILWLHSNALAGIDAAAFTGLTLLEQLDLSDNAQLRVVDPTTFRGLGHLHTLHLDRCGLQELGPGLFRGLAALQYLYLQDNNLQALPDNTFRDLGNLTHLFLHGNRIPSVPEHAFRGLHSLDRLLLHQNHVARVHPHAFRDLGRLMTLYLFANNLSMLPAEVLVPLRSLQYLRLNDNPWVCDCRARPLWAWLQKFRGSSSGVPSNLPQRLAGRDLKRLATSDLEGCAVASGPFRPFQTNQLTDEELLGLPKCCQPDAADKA
In words: SPA bead competition: inhibition of 125I-Nogo66 binding to immobilised sNogoR344-Fc.

The target of experiment [3] is Nogo receptor-1 (species and form not stated). As to the kind of experiment: method not given.

B1: monoclonal antibody 7E11 (antibody, V domains shown)
VH: VQLQESGAELVMPGASVKMSCKASGYTFTDYWMHWVKQRPGQGLEWIGAIDPSDSYSSYNQNFKGKATLTVDGSSSTAYMQLSSLTSEDSAVYYCARRITEAGAWFAYWGQGTTVT
VL: DVVMTQTPLSLPVSLGDQASISCRSSQSLVHSNGNTYLHWYLQKPGQSPKLLIYKVSNRFSGVPDRFSGSGSGTDFTLKISRVDAEDLGVYFCSQSTHVPFTFGGGTKLEIKR
With B1, the “fold increase of EC50 against the original peptide” value in experiment [1] worked out at 25 fold; in experiment [2], 30 fold. Further, in the experiment with sNogoR344-Fc, the IC50 worked out at 400 nM. The molecule further yielded a Kd in experiment [3] of 100 nM.
